Paper doi:10.1101/2021.01.28.428652

Legend:
[1] = biological target: MIK2^ECD-6xHIS, extracellular leucine-rich repeat domain of MALE DISCOVERER 1-… RECEPTOR-LIKE KINASE 2 (Arabidopsis thaliana) (UniProt Q8VZG8); experiment: SPR
[2] = biological target: MIK2^ECD-6xHIS, extracellular leucine-rich repeat domain of MALE DISCOVERER 1-… RECEPTOR-LIKE KINASE 2 (Arabidopsis thaliana) (UniProt Q8VZG8); experiment: ITC

UniProt Q8VZG8, sequence (Q8VZG8 44-707): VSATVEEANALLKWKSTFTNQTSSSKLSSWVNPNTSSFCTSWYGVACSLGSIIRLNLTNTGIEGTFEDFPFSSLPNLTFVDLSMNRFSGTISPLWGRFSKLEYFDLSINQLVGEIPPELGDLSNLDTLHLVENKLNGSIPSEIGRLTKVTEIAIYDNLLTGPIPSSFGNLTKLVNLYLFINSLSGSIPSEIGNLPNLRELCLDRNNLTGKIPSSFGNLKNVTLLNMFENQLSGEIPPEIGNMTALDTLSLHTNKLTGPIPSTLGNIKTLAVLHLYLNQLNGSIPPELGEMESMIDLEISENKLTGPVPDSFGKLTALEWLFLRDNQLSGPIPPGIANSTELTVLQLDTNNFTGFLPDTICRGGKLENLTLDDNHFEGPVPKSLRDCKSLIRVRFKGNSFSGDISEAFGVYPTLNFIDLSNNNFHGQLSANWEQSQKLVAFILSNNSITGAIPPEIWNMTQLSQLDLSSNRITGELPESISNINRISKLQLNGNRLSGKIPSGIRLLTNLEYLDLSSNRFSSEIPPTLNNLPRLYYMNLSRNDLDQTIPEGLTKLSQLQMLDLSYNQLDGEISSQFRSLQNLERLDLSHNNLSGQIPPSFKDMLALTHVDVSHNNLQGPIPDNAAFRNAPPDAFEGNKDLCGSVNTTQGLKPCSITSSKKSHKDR

| Substance | Kd [1] | Kd [2] | stoichiometry N (ligand molecule per receptor molecule) [2] |
| --- | --- | --- | --- |
| SCOOP12 peptide (SERINE-RICH ENDOGENOUS PEPTIDE 12) | 1.78 µM | 3.18 µM | 1 |
| SCOOP12^SS/AA peptide | 3480 µM |  |  |
